{
  "source": "patent US6531296B1",
  "about": "“Nuclear tyrosine kinase Rak” (The University of North Carolina at Chapel Hill, priority 1995, dated 2003)",
  "molecules": {"B1": {"name": "wild-type peptide: hexahistidine fusion protein containing the 62 carboxy-terminal amino acids of Rak (protein, UniProt P42685 444-505, looked up, fragment)", "chain": "QMLAQNYRLPQPSNCPQQFYNIMLECWNAEPKERPTFETLRWKLEDYFETDSSYSDANNFIR", "modifications": "hexahistidine tag", "notes": "hexahistidine fusion protein containing the 62 carboxy-terminal amino acids of Rak"}, "B2": {"name": "mutant at position 490: 62-amino-acid carboxy-terminal Rak peptide with tyrosine 490 mutated to phenylalanine (protein, UniProt P42685 444-505, looked up, variant Y490F)", "chain": "B1 chain with Y47F", "modifications": "C-terminal 62 residues His tag", "notes": "62-amino-acid carboxy-terminal Rak peptide with tyrosine 490 mutated to phenylalanine"}, "B3": {"name": "mutant at position 450: 62-amino-acid carboxy-terminal Rak peptide with tyrosine 450 mutated to phenylalanine (protein, UniProt P42685 444-505, looked up, variant Y450F)", "chain": "B1 chain with Y7F", "modifications": "C-terminal 62 residues His tag", "notes": "62-amino-acid carboxy-terminal Rak peptide with tyrosine 450 mutated to phenylalanine"}, "B4": {"name": "497 mutant: 62-amino-acid carboxy-terminal Rak peptide with tyrosine 497 mutated to phenylalanine (protein, UniProt P42685 444-505, looked up, variant Y497F)", "chain": "B1 chain with Y54F", "modifications": "C-terminal 62 residues His tag", "notes": "62-amino-acid carboxy-terminal Rak peptide with tyrosine 497 mutated to phenylalanine"}},
  "system": "CSK (p50csk)",
  "experiment": "In vitro kinase assay: phosphorylation of Rak carboxy-terminal peptides by CSK",
  "format": "biochemical",
  "settings": "relative to wild-type peptide for the mutants",
  "procedure": "Peptide, Preparation for Phosphorylation. Initially, the OAg was tested for phosphorylation by CSK in an in vitro kinase reaction and was phosphorylated. To further assess which tyrosine was phosphorylated, each of the four tyrosines in the substrate peptide were mutated to phenylalanine by the double-stranded, site-directed mutagenesis method (Deng and Nickoloff. Site-directed mutagenesis of virtually any plasmid by eliminating a unique site. Anal. Biochem., 200:81-88 (1992)). The plasmid was denatured by heating to 100° C. for 5 min and then annealed to a mutagenic primer and a second primer converting an Af/AII site on the plasmid to a Bg/II site. The mutagenic primers for the four tyrosines were: Y45Uf, 5′-[…]-3′ (SEQ ID NO:9); Y163F, 5′-[…]-3′ (SEQ ID NO:10); Y490F, 5′-TGAAGAC-TTTTTTGAAACAG-3′ (SEQ ID NO:11); and Y497F, 5′-[…]-3′ (SEQ ID NO:12).\nPurified μ50^csk and Enzyme Assays. p50^csk was produced in S/9 cells from a Baculovirus vector containing the full-length csk cDNA (Okada et al., J. Biol. Chem; 264:20886-20893(1989)), purified according to Murphy et al. (Mol. Cell. Biol., 13:5290-5300 (1993), and mixed with the different peptides of Rak. These peptides correspond to the last 62 amino acids of the kinase, containing four tyrosine residues (Y450, Y463, Y490, and […]), and mutant peptides where each of the four tyrosines was […]. The phosphorylation of the native peptide was compared to the that of the mutant peptides. For the in vitro kinase assay, different amounts of p50^csk were mixed with different amount of the peptides in a reaction buffer (10 mM HEPES (pH 7.4) 10 mM MnCl21. Four μg bovine serum albumin were added to the 20-μl mixture, and the reaction was initiated with the addition of AIP to 1 μm and 10 μCl of 1 γ-^32P)ATP (3000 Ci/mmol; Amersham). Tubes were incubated at 30° C. for 15 min, and the reaction was stopped by the addition of SDS-PAGE sample buffer. The samples were boiled and analyzed on 15% SDS-PAGE gels, which were fixed, stained, and exposed to film at […].\nThe Carboxy Terminus of Rak Is Phosphorylated by CSK. Since CSK phosphorylates the carboxy terminal tyrosines of several other Src-related kinases, the ability of CSK to phosphorylate a recombinant carboxy-terminal peptide of Rak was analyzed. […] Since this peptide contained four tyrosines at positions 450, 463, 490, and 497, each tyrosine was individually mutated to phenylalanine and then the peptides were assayed for phosphorylation by CSK. […] Indeed, this residue corresponds to the CSK phosphorylation site for the other Src family members with regard to its localization in regard to the kinase domain, although the sequence context of this tyrosine differs from that of the other Src-like kinases.",
  "note": "Changes are numbered by the printed parent chain.",
  "data": [
    {"molecule": "B1", "values": [
      {"measurement": "phosphorylation by CSK", "value": "readily phosphorylated"},
      {"measurement": "phosphorylation by CSK", "setting": "listed as OAg", "value": "phosphorylated"}
    ]},
    {"molecule": "B2", "values": [
      {"measurement": "phosphorylation by CSK", "value": "about one-half"}
    ]},
    {"molecule": "B3", "values": [
      {"measurement": "phosphorylation by CSK", "value": "about one-half"}
    ]},
    {"molecule": "B4", "values": [
      {"measurement": "phosphorylation by CSK", "value": "barely detectable"}
    ]}
  ]
}
